Source: publication doi:10.1101/330266 (bioRxiv, 2019)

Target: the molecule itself
Assay: thioflavin T

| Protein | binding result |
| --- | --- |
| Ac-DNIKHIPGGGSVQIVYK-NH2 [R2R3-V300I peptide fragment] | binds |
| Ac-DNIKHVPGVGSVQIVYK-NH2 [R2R3-G303V peptide fragment] | binds |
| Ac-DNIKHVLGGGSVQIVYK-NH2 [R2R3-P301L peptide fragment] | binds |
| Ac-DNIKHVSGGGSVQIVYK-NH2 [R2R3-P301S peptide fragment] | binds |
| Ac-VQIVYK-NH2 [306VQIVYK311 hexapeptide] | binds |
| Ac-DNIKHVPGGGNVQIVYK-NH2 [R2R3-S305N peptide fragment] | binds |
